In patent US20190300590A1 (PROTAGONIST THERAPEUTICS, published 2019):
Bridges are numbered along the chain shown (N, C = ends). [ ]: non-standard residue; d: D form. 2Nal = N[C@@H](Cc1ccc2ccccc2c1)C(=O)O; AEF = NCCOc1ccc(C[C@H](N)C(=O)O)cc1; hArg = N=C(N)NCCCC[C@H](N)C(=O)O; Pen = CC(C)(S)[C@H](N)C(=O)O; αMeK = C[C@](N)(CCCCN)C(=O)O; αMeS = C[C@](N)(CO)C(=O)O; Iva = CC[C@](C)(N)C(=O)O; Abu = CC[C@H](N)C(=O)O; Aib = CC(C)(N)C(=O)O

T1: IL-23R on human cells (IL-23R-expressing DB cells; human NK cells) (human, UniProt Q5VWK5 24-629)
T1 sequence (looked up): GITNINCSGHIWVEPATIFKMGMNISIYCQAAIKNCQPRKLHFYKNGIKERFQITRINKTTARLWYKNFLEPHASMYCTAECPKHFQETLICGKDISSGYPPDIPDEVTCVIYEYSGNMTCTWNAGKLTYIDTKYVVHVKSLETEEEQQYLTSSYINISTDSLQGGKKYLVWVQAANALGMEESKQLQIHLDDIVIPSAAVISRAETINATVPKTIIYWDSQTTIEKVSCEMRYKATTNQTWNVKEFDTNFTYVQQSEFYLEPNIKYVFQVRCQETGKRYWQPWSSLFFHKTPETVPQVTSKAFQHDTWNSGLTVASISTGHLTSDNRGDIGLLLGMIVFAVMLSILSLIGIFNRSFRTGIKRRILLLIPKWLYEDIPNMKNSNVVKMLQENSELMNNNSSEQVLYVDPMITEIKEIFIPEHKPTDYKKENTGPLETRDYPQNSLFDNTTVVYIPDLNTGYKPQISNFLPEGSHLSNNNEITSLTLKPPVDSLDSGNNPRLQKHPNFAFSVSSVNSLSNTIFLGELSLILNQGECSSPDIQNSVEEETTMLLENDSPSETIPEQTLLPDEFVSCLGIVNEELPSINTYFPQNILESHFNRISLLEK

T2: IL23R_huFC (human, UniProt Q5VWK5 24-353)
T2 sequence (looked up): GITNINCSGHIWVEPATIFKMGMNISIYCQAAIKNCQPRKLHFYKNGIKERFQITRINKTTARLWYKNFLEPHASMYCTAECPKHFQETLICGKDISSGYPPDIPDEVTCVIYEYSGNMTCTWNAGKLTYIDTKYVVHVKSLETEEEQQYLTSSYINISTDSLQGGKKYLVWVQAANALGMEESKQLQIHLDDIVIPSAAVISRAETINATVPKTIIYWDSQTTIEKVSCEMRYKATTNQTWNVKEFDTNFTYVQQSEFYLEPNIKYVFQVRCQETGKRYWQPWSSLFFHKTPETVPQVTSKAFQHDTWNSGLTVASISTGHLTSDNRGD

T3: IL-23R on DB cells (human, UniProt Q5VWK5 24-629)
T3 sequence (looked up): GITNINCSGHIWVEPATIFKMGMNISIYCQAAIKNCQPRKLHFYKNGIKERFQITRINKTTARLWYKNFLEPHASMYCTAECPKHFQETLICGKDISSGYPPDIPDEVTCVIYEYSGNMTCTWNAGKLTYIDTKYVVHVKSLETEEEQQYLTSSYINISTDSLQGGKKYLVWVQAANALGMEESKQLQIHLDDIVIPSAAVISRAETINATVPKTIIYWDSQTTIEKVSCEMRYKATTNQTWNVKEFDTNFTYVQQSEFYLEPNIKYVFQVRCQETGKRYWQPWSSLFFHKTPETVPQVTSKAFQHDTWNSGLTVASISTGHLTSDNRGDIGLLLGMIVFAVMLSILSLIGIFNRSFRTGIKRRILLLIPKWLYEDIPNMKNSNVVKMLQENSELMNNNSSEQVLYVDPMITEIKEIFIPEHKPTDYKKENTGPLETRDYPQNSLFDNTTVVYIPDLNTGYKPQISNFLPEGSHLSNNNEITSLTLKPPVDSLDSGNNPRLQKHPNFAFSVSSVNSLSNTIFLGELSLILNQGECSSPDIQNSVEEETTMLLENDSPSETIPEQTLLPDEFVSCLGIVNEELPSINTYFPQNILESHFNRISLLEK


Legend:
[1] = target: T1, IL-23R on human cells …; assay: cell-based or functional assay
[2] = target: T2, IL23R_huFC; assay: human ELISA vs IL-23
[3] = target: T3, IL-23R on DB cells; assay: cell-based or functional assay

| Binder | pStat3 HTRF IC50 [1] [nM] | IC50 [2] [nM] | pStat3 HTRF IC50 [3] [nM] |
| --- | --- | --- | --- |
| XQTWQXFXXENN (Ac; Pen-Pen disulfide; Phe[4-(2-aminoethoxy)]; 2-Nal; Aib; NH2) [Ac-[Pen]-QTWQ-[Pen]-[Phe[4-(2-aminoethoxy)]-[2-Nal]-[Aib]-ENN-NH2] | – | – | < 10 |
| XNTWQXFXXKNQ (Ac; Pen-Pen disulfide; Phe(4-OMe); 2-Nal; Aib; Lys(Ac); NH2) [Ac-[Pen]-NTWQ-[Pen]-[Phe(4-OMe)]-[2-Nal]-[Aib]-[Lys(Ac)]-NQ-NH2] | – | – | < 10 |
| XNTWQXFXXKNA (Ac; Pen-Pen disulfide; Phe(4-OMe); 2-Nal; Aib; Lys(Ac); βAla; NH2) [Ac-[Pen]-NTWQ-[Pen]-[Phe(4-OMe)]-[2-Nal]-[Aib]-[Lys(Ac)]-N-[βAla]-NH2] | – | – | < 10 |
| Ac-[Pen]TTWQ[Pen][AEF][2Nal][Aib]K(Ac)NN-NH2 (disulfide 1-6 (inferred)) [Ac-[Pen]-TTWQ-[Pen]-[Phe[4-(2-aminoethoxy)]-[2-Nal]-[Aib]-[Lys(Ac)]-NN-NH2] | – | – | < 10 |
| XQTWQXFXXKNN (Ac; Pen-Pen disulfide; Phe[4-(2-acetylaminoethoxy)]; 2-Nal; Aib; Lys(Ac); NH2) [Ac-[Pen]-QTWQ-[Pen]-[Phe[4-(2-acetylaminoethoxy)]-[2-Nal]-[Aib]-[Lys(Ac)]-NN-NH2] | – | – | < 10 |
| XQTWQXFXLENA (Ac; Pen-Pen disulfide; Phe[4-(2-aminoethoxy)]; 2-Nal; hLeu; NH2) [Ac-[Pen]-QTWQ-[Pen]-[Phe[4-(2-aminoethoxy)]-[2-Nal]-[hLeu]-ENA-NH2] | – | – | 10 to 25 |
| XQTWQXFXXENN (Ac; Pen-Pen disulfide; Phe[4-(2-acetylaminoethoxy)]; 2-Nal; Aib; NH2) [Ac-[Pen]-QTWQ-[Pen]-[Phe[4-(2-acetylaminoethoxy)]-[2-Nal]-[Aib]-ENN-NH2] | – | – | < 10 |
| XNTWQXFXXKNA (Ac; Pen-Pen disulfide; Phe(4-OMe); 2-Nal; Aib; Lys(Ac); NH2) [Ac-[Pen]-NTWQ-[Pen]-[Phe(4-OMe)]-[2-Nal]-[Aib]-[Lys(Ac)]-NA-NH2] | – | – | < 10 |
| XQTWQXFXXENN (Ac; Pen-Pen disulfide; Phe(4-OMe); 2-Nal; Aib; NH2) [Ac-[Pen]-QTWQ-[Pen]-[Phe(4-OMe)]-[2-Nal]-[Aib]-ENN-NH2] | – | – | < 10 |
| XQTWQXYXXENG (Ac; Pen-Pen disulfide; 2-Nal; α-MeOrn; NH2) [Ac-[Pen]-QTWQ-[Pen]-Y-[2-Nal]-[α-MeOrn]-ENG-NH2] | – | – | 10 to 25 |
| XNTWQXFXLENA (Ac; Pen-Pen disulfide; Phe[4-(2-aminoethoxy)]; 2-Nal; hLeu; NH2) [Ac-[Pen]-NTWQ-[Pen]-[Phe[4-(2-aminoethoxy)]-[2-Nal]-[hLeu]-ENA-NH2] | – | – | < 10 |
| Ac-[Abu]QTWQC[AEF][2Nal][αMeK][hArg]NG-NH2 (thioether 1-6) [Ac-Cyclo-[[Abu]-QTWQC]-[Phe[4-(2-aminoethoxy)]]-2-Nal]-[α-MeLys]-hRNG-NH2] | < 10 | < 10 | – |
| Ac-[Abu]QTWQC[AEF][2Nal][Iva]K(Ac)NG-NH2 (thioether 1-6) [Ac-Cyclo-[[Abu]-QTWQC]-[Phe[4-(2-aminoethoxy)]]-[2-Nal]-[α-Me-Gly(Ethyl)]Lys(Ac)]-NG-NH2] | < 10 | < 10 | – |

The next lines start with the values.

| pStat3 HTRF IC50 [1] [nM] | IC50 [2] [nM] | pStat3 HTRF IC50 [3] [nM] | Binder |
| --- | --- | --- | --- |
| < 10 | < 10 | – | XQTWQCFXKXNG (as bracketed in name; thioether cyclo) [Ac-Cyclo-[[Abu]-QTWQC]-[Phe[4-(2-aminoethoxy)]]-[2-Nal]-[α-MeLys]-[Orn]-NG-NH2] |
| < 10 | < 10 | – | Ac-R[Abu]QTWQC[AEF][2Nal][αMeK]ENN-NH2 (thioether 2-7) [Ac-Arg-Cyclo-[[Abu]-QTWQC]-[Phe[4-(2-aminoethoxy)]]-[2-Nal]-[α-MeLys]-ENN-NH2] |
| < 10 | < 10 | – | Ac-[Abu]TWQC[AEF][2Nal][αMeK]ENG-NH2 (thioether 1-5) [Ac-Cyclo-[[Abu]-TWQC]-[Phe[4-(2-aminoethoxy)]]-[2-Nal]-[α-MeLys]-ENG-NH2] |
| < 10 | < 10 | – | Ac-[Abu]TTWQC[AEF][2Nal][αMeK]ENG-NH2 (thioether 1-6) [Ac-Cyclo-[[Abu]-TTWQC]-[Phe[4-(2-aminoethoxy)]]-[2-Nal]-[α-MeLys]-ENG-NH2] |
| < 10 | < 10 | – | Ac-[Abu]QTWQC[AEF][2Nal][αMeK]QNG-NH2 (thioether 1-6) [Ac-Cyclo-[[Abu]-QTWQC]-[Phe[4-(2-aminoethoxy)]]-[2-Nal]-[α-MeLys]-QNG-NH2] |
| < 10 | < 10 | – | Ac-[Abu]QTWQC[AEF][2Nal][αMeS]K(Ac)NG-NH2 (thioether 1-6) [Ac-Cyclo-[[Abu]-QTWQC]-[Phe[4-(2-aminoethoxy)]]-[2-Nal]-[α-MeSer]-[Lys(Ac)]-NG-NH2] |
| < 10 | < 10 | – | Ac-[Abu]QTWQC[AEF][2Nal][αMeK]NNG-NH2 (thioether 1-6) [Ac-Cyclo-[[Abu]-QTWQC]-[Phe[4-(2-aminoethoxy)]]-[2-Nal]-[α-MeLys]-NNG-NH2] |
